Laboratory results taken from PMC7954794, “Protein context shapes the specificity of SH3 domain-mediated interactions in vivo” (Nature Communications, 2021).

Test system: Sla1 PPIs
Assay: DHFR-PCA of Sla1 SH3-swapped, -shuffled or -deleted baits (Fig. 2E, 4B, 4D, S5A)
Type: cell-based, Saccharomyces cerevisiae
Source text: The stuffing of YSC84 SH3 rendered the strain sterile and was therefore not used for this study as the assays require crosses. For genes containing two SH3s (BZZ1 and BEM1), a combination of this first stuffer with a second one ([…]) coding for a highly similar linker ([…]) was used, which allowed targeting each SH3 position independently. The two N-terminal domains of SLA1, which are separated by six nucleotides, were stuffed by a single stuffer. Cells containing pCAS were selected via the G418 resistance cassette from the plasmid on YPD plates (YPD + NAT 100 μg/ml (DHFR F[1,2] selection) + G418 200 µg/mL (Bioshop Canada)). Colonies were randomly selected and grown in YPD media without G418 to allow plasmid loss. The correct insertion of the stuffer was validated by PCR and Sanger sequencing. The SH3-swapped, -shuffled, and -mutated strains were constructed following a second CRISPR–Cas9 editing step with the same procedures. The stuffer sequences were targeted by specific gRNAs (one gRNA per stuffer) and replaced by PCR amplified specific SH3 (with 40 bp homology arms) or libraries of mutated SH3 domains for Deep Mutational Scanning (DMS) with 78 bp flanking homology regions. Validation of the SH3 domain insertions was done as we previously described except for DMS libraries (see below).
The overall DHFR-PCA pipeline is based on Tarassov et al.[43] and the procedures have also been published as a visualized protocol. The screens were performed with robotically manipulated pin tools (BM5-SC1, S&P Robotics Inc.). First, the preys were cherry-picked from 96-well plates to omnitrays in a 384 format on YPD + HPH solid media. Plates were then combined into the 1536 format on YPD + HPH. The array was constituted of 575 preys previously shown to interact physically with at least one SH3-containing protein as reported in BioGRID V3.4.16 along with 40 negative controls. The prey array comprised a border of control strains of two rows and two columns corresponding to the PPI between LSM8-DHFR F[1,2] and CDC39-DHFR F[3]. This double border was used to remove border effects. Preys are present in duplicate at a randomized position in the 1536 array (except for YAL041W which is present four times per array). Baits were crossed with two prey plates, resulting in four independent bait–prey tests for each PPI. Baits were grown in liquid YPD + NAT and then transferred on solid YPD + NAT omnitrays. They were then replicated on YPD + NAT omnitrays in 1536 array format. Mating of DHFR F[1,2] baits with DHFR F[3] preys was done on YPD followed by incubation at 30 °C for 48 h. Two diploid selection steps were performed by replicating the plates on YPD + NAT + HPH and incubating them for 48 h at 30 °C. Pictures were taken at the end of the second diploid selection for quality control. All images were acquired with a EOS Rebel T5i camera (Canon). Finally, the diploid cells were replicated on omnitrays containing solid PCA selection media and incubated for 4 days as a first selection step in a spImager custom robotic platform (S&P Robotics Inc.). Cells were replicated for a second PCA selection step and incubated in the same manner. The last time point of the second PCA selection step was used for the data analysis as in previous studies using this method.
A separate DHFR-PCA screen was performed for the Sla1 SH3 shuffling experiment, with the same analysis as previously described. Three plates had no detectable level of background, which correspond to the second plate of the three Sla1 SH3 WT re-insertion controls. They were attributed the average of the background of the three first plates of the same baits. The threshold was also determined based on the distribution of the PCA scores of all PPIs and corresponds to the top 2.75% of all colonies detected in this experiment. […] Almost all true PPIs are from four replicates (96.2%). […]

B1: WT¦WT¦WT (protein, UniProt P32790 1-1244, looked up)
Actin cytoskeleton-regulatory …: MTVFLGIYRAVYAYEPQTPEELAIQEDDLLYLLQKSDIDDWWTVKKRVIGSDSEEPVGLVPSTYIEEAPVLKKVRAIYDYEQVQNADEELTFHENDVFDVFDDKDADWLLVKSTVSNEFGFIPGNYVEPENGSTSKQEQAPAAAEAPAATPAAAPASAAVLPTNFLPPPQHNDRARMMQSKEDQAPDEDEEGPPPAMPARPTATTETTDATAAAVRSRTRLSYSDNDNDDEEDDYYYNSNSNNVGNHEYNTEYHSWNVTEIEGRKKKKAKLSIGNNKINFIPQKGTPHEWSIDKLVSYDNEKKHMFLEFVDPYRSLELHTGNTTTCEEIMNIIGEYKGASRDPGLREVEMASKSKKRGIVQYDFMAESQDELTIKSGDKVYILDDKKSKDWWMCQLVDSGKSGLVPAQFIEPVRDKKHTESTASGIIKSIKKNFTKSPSRSRSRSRSKSNANASWKDDELQNDVVGSAAGKRSRKSSLSSHKKNSSATKDFPNPKKSRLWVDRSGTFKVDAEFIGCAKGKIHLHKANGVKIAVAADKLSNEDLAYVEKITGFSLEKFKANDGSSSRGTDSRDSERERRRRLKEQEEKERDRRLKERELYELKKARELLDEERSRLQEKELPPIKPPRPTSTTSVPNTTSVPPAESSNNNNSSNKYDWFEFFLNCGVDVSNCQRYTINFDREQLTEDMMPDINNSMLRTLGLREGDIVRVMKHLDKKFGRENIASIPTNATGNMFSQPDGSLNVATSPETSLPQQLLPQTTSPAQTAPSTSAETDDAWTVKPASKSESNLLSKKSEFTGSMQDLLDLQPLEPKKAAASTPEPNLKDLEPVKTGGTTVPAAPVSSAPVSSAPAPLDPFKTGGNNILPLSTGFVMMPMITGGDMLPMQRTGGFVVPQTTFGMQSQVTGGILPVQKTGNGLIPISNTGGAMMPQTTFGAAATVLPLQKTGGGLIPIATTGGAQFPQTSFNVQGQQQLPTGSILPVQKTANGLISANTGVSMPTVQRTGGTMIPQTSFGVSQQLTGGAMMTQPQNTGSAMMPQTSFNAVPQITGGAMMPQTSFNALPQVTGGAMMPLQRTGGALNTFNTGGAMIPQTSFSSQAQNTGGFRPQSQFGLTLQKTGGIAPLNQNQFTGGAMNTLSTGGVLQQQQPQTMNTFNTGGVMQELQMMTTFNTGGAMQQPQMMNTFNTDGIMQQPQMMNTFNTGGAMQQPQQQALQNQPTGFGFGNGPQQSRQANIFNATASNPFGF
Protein-protein interaction distance between Sla1 baits (distance to bait ABP1¦WT¦WT): 8.25
Protein-protein interaction distance between Sla1 baits (distance to bait ABP1¦WT¦WT, listed as WT¦WT¦WT*): 10.6959
Protein-protein interaction distance between Sla1 baits (distance to bait D¦D¦D): 16.1793
Protein-protein interaction distance between Sla1 baits (distance to bait D¦D¦D, listed as WT¦WT¦WT*): 19.5303
Protein-protein interaction distance between Sla1 baits (distance to bait D¦D¦SH3-1): 16.1305
Protein-protein interaction distance between Sla1 baits (distance to bait D¦D¦SH3-1, listed as WT¦WT¦WT*): 19.4574
Protein-protein interaction distance between Sla1 baits (distance to bait D¦D¦WT): 16.2907
Protein-protein interaction distance between Sla1 baits (distance to bait D¦D¦WT, listed as WT¦WT¦WT*): 19.6881
Protein-protein interaction distance between Sla1 baits (distance to bait D¦WT¦D): 11.2982
Protein-protein interaction distance between Sla1 baits (distance to bait D¦WT¦D, listed as WT¦WT¦WT*): 13.9439
Protein-protein interaction distance between Sla1 baits (distance to bait D¦WT¦SH3-1): 14.8539
Protein-protein interaction distance between Sla1 baits (distance to bait D¦WT¦SH3-1, listed as WT¦WT¦WT*): 18.0045
Protein-protein interaction distance between Sla1 baits (distance to bait D¦WT¦SH3-2): 16.1112
Protein-protein interaction distance between Sla1 baits (distance to bait D¦WT¦SH3-2, listed as WT¦WT¦WT*): 19.4593
Protein-protein interaction distance between Sla1 baits (distance to bait D¦WT¦WT): 11.2206
Protein-protein interaction distance between Sla1 baits (distance to bait D¦WT¦WT, listed as WT¦WT¦WT*): 13.8561
Protein-protein interaction distance between Sla1 baits (distance to bait SH3-2¦SH3-1¦WT): 14.7068
Protein-protein interaction distance between Sla1 baits (distance to bait SH3-2¦SH3-1¦WT, listed as WT¦WT¦WT*): 17.8199
Protein-protein interaction distance between Sla1 baits (distance to bait SH3-2¦WT¦D): 16.5686
Protein-protein interaction distance between Sla1 baits (distance to bait SH3-2¦WT¦D, listed as WT¦WT¦WT*): 19.9645
Protein-protein interaction distance between Sla1 baits (distance to bait SH3-2¦WT¦WT): 10.6088
Protein-protein interaction distance between Sla1 baits (distance to bait SH3-2¦WT¦WT, listed as WT¦WT¦WT*): 13.1093
Protein-protein interaction distance between Sla1 baits (distance to bait SH3-3¦SH3-1¦D): 6.071
Protein-protein interaction distance between Sla1 baits (distance to bait SH3-3¦SH3-1¦D, listed as WT¦WT¦WT*): 7.132
Protein-protein interaction distance between Sla1 baits (distance to bait SH3-3¦SH3-1¦SH3-2): 11.1253
Protein-protein interaction distance between Sla1 baits (distance to bait SH3-3¦SH3-1¦SH3-2, listed as WT¦WT¦WT*): 13.2567
Protein-protein interaction distance between Sla1 baits (distance to bait SH3-3¦WT¦D): 6.23
Protein-protein interaction distance between Sla1 baits (distance to bait SH3-3¦WT¦D, listed as WT¦WT¦WT*): 7.588
Protein-protein interaction distance between Sla1 baits (distance to bait SH3-3¦WT¦SH3-1): 7.451
Protein-protein interaction distance between Sla1 baits (distance to bait SH3-3¦WT¦SH3-1, listed as WT¦WT¦WT*): 7.53
Protein-protein interaction distance between Sla1 baits (distance to bait SH3-3¦WT¦WT): 5.911
Protein-protein interaction distance between Sla1 baits (distance to bait SH3-3¦WT¦WT, listed as WT¦WT¦WT*): 7.517
Protein-protein interaction distance between Sla1 baits (distance to bait WT*¦WT¦WT): 6.431
Protein-protein interaction distance between Sla1 baits (distance to bait WT*¦WT¦WT, listed as WT¦WT¦WT*): 3.21
Protein-protein interaction distance between Sla1 baits (distance to bait WT¦ABP1¦WT): 7.491
Protein-protein interaction distance between Sla1 baits (distance to bait WT¦ABP1¦WT, listed as WT¦WT¦WT*): 10.0527
Protein-protein interaction distance between Sla1 baits (distance to bait WT¦D¦D): 10.9978
Protein-protein interaction distance between Sla1 baits (distance to bait WT¦D¦D, listed as WT¦WT¦WT*): 13.667
Protein-protein interaction distance between Sla1 baits (distance to bait WT¦D¦SH3-2): 12.0771
Protein-protein interaction distance between Sla1 baits (distance to bait WT¦D¦SH3-2, listed as WT¦WT¦WT*): 14.877
Protein-protein interaction distance between Sla1 baits (distance to bait WT¦D¦WT): 11.0221
Protein-protein interaction distance between Sla1 baits (distance to bait WT¦D¦WT, listed as WT¦WT¦WT*): 13.7143
Protein-protein interaction distance between Sla1 baits (distance to bait WT¦SH3-1¦D): 6.357
Protein-protein interaction distance between Sla1 baits (distance to bait WT¦SH3-1¦D, listed as WT¦WT¦WT*): 7.675
Protein-protein interaction distance between Sla1 baits (distance to bait WT¦SH3-1¦WT): 5.709
Protein-protein interaction distance between Sla1 baits (distance to bait WT¦SH3-1¦WT, listed as WT¦WT¦WT*): 7.171
Protein-protein interaction distance between Sla1 baits (distance to bait WT¦SH3-3¦D): 9.961
Protein-protein interaction distance between Sla1 baits (distance to bait WT¦SH3-3¦D, listed as WT¦WT¦WT*): 12.4074
Protein-protein interaction distance between Sla1 baits (distance to bait WT¦SH3-3¦SH3-2): 12.7354
Protein-protein interaction distance between Sla1 baits (distance to bait WT¦SH3-3¦SH3-2, listed as WT¦WT¦WT*): 15.4687
Protein-protein interaction distance between Sla1 baits (distance to bait WT¦SH3-3¦WT): 10.0693
Protein-protein interaction distance between Sla1 baits (distance to bait WT¦SH3-3¦WT, listed as WT¦WT¦WT*): 12.5958
Protein-protein interaction distance between Sla1 baits (distance to bait WT¦WT*¦WT): 6.129
Protein-protein interaction distance between Sla1 baits (distance to bait WT¦WT*¦WT, listed as WT¦WT¦WT*): 3.181
Protein-protein interaction distance between Sla1 baits (distance to bait WT¦WT¦ABP1): 9
Protein-protein interaction distance between Sla1 baits (distance to bait WT¦WT¦ABP1, listed as WT¦WT¦WT*): 10.6328
Protein-protein interaction distance between Sla1 baits (distance to bait WT¦WT¦D): 5.067
Protein-protein interaction distance between Sla1 baits (distance to bait WT¦WT¦D, listed as WT¦WT¦WT*): 7.2651
Protein-protein interaction distance between Sla1 baits (distance to bait WT¦WT¦SH3-1): 4.945
Protein-protein interaction distance between Sla1 baits (distance to bait WT¦WT¦SH3-1, listed as WT¦WT¦WT*): 5.794
Protein-protein interaction distance between Sla1 baits (distance to bait WT¦WT¦SH3-2): 5.746
Protein-protein interaction distance between Sla1 baits (distance to bait WT¦WT¦SH3-2, listed as WT¦WT¦WT*): 6.816
Protein-protein interaction distance between Sla1 baits (distance to bait WT¦WT¦WT): 0
Protein-protein interaction distance between Sla1 baits (distance to bait WT¦WT¦WT*): 6.956
Protein-protein interaction distance between Sla1 baits (distance to bait WT¦WT¦WT*, listed as WT¦WT¦WT*): 0
Protein-protein interaction distance between Sla1 baits (distance to bait WT¦WT¦WT, listed as WT¦WT¦WT*): 6.956
